For one assay, the system named is western corn rootworm. Kind of assay: Field trial of T1 maize plants, corn rootworm root injury (CRWNIS). To be noted: two locations in Iowa; 750 non-diapausing western corn rootworm eggs per plant; scale 0.00 no injury to 3.00 three entire nodes pruned. It is filed as in vivo, Diabrotica virgifera. The method, then:
T1 plants expressing optAxmi184 were tested at two locations in Iowa. Each experimental unit consisted of a one-row plot of maize measuring approximately 15 feet. Plots were arranged using a randomized complete block design with four replications. Efficacy against western corn rootworm was determined by evaluating up to eight maize roots per plot. Inbreds B110 and B116, a CRW-susceptible commercial hybrid, and two CRW control standards: B110 with a standard granular insecticide (FORCE® 3G), and B110 with an insecticidal seed treatment (PONCHO® 1250) were used as controls.
Fields were prepared for this study using cultural practices similar to those used in commercial maize fields in Iowa. Plants not containing transgenic events for CRW control were identified and excluded from the study using an application of 16 oz/A of glyphosate when plants were at the V1 leaf stage. Five to ten days later, the number of positive and negative plants in each plot was recorded. Negative plants were then removed and the remaining positive plants were thinned to 8 plants per row. All plants were then manually infested with non-diapausing western corn rootworm eggs. The eggs were suspended in a dilute agar solution and calibrated to deliver 750 eggs per plant for all plots.
Roots were dug, washed and evaluated for CRW injury after a period of larval feeding. […]

The test system of assay [1] is western corn rootworm (Diabrotica virgifera). Briefly: Root damage in T0 transgenic maize in root-trainer containers infested with western corn rootworm eggs (CRWNIS). It counts as in vivo. Particulars: T0 maize plants containing optAxmi184 and expressing detectable AXMI184; ~125 non-diapausing eggs per plant; assessed after fifteen days; versus control plants infested in the same manner; FIG. 1. The source says:
Transgenic maize plants transformed with an optimized version of Axmi184 (optAxmi184, set forth herein as SEQ ID NO:2) were obtained by Agrobacterium-mediated transformation. Plants shown by PCR analysis to contain the appropriate Axmi184 construct were selected, and transferred to root trainer containers.
T0 plants containing optAxmi184 were transplanted to root-trainer containers and propagated for approximately three weeks. Individual plants were then each infested with ˜125 non-diapausing western corn rootworm (Diabrotica virgifera) eggs. Plants were analyzed for expression of AXMI184 protein by Western blot analysis using an anti-AXMI184 antibody. Plants expressing detectable amounts of AXMI184 were selected for analysis. After fifteen days, the amount of root damage in each plant was assessed using the Node Injury Scale (CRWNIS) (Oleson et al. 2005. J. Econ Entomol. 98(1): 1-8), where 0.00 is no injury and 3.00 is all roots pruned to within 1.5 inches of the stalk on three entire nodes.

B1: AXMI184: Pesticidal protein SEQ ID NO:3 from Bacillus thuringiensis strain ATX14775; expressed in maize from optimized gene optAxmi184 (SEQ ID NO:2) (protein, listed as Bacillus thuringiensis)
chain: MNMNKNNTKLSARALPSFIDYFNGIYGFATGIKDIMNMIFKTDTGGDLTLDEILKNQQLLNDISGKLDGVNGSLNDLIAQGNLNTELSKEILKIANEQNQVLNDVNNKLDAINTMLHVYLPKITSMLSDVMKPNYALSMQIEYLSRQLQEISDKLDIINVNVLINSTLTEITPAYQWIKYVNEKFEELTFATETTLKVKNDSASADILDELTELTELAKSVTKNDVDGFEFYLNTFHDVMVGNNLFGRSTLKTASELIAKENVKTSGSEVGNVYNFLVVLTALQAKAFLTLTTCRKLLGLADIDYTSIMNEHLNKEKEEFRVNILPILSNTFSNPNYAKVKGSDEDAKMIVEAKPGHALVGFEISNDSMTVLKVYEAKLKQNYQVDKDSLSEVIYGDMDKLLCPDQSEKIYYTNNIVFPNEYVITKIDFTKKMKTLRYEVTANSYDSSTGEIDLNKKKVESSKAEYRTLSANNDGVYMPLGVISETFLTPINGFGLQADENSRLITLTCKSYLRELLLATDLSNKETKLIVPPNSFISNIVENGSIEEGHLEPWKANNKNAYVDHTGGVNGTKALYVHEDGGVSQFMGDKLKPKTEYVIQYTVKGKPSIHLKDENTGYILYEDTNNDLEDFQTITKRFTTGTDLMRVYLILKSQSGHEAWGDNFTILEIKPAEALVSPELINPNSWITTQGASISGDKLFISLGTNGTFRQNLSLNSYSTYSISFTASGPFNVTVRNSREVLYERNNLMSSTSHISGEFKTESNNTGLYVELSRRSGGAGHISFENISIK
For B1, the “Average CRWNIS” value with western corn rootworm was determined as 0.12. For the same molecule, in assay [1], the “amount of root damage, Node Injury Scale (CRWNIS)” value is reported as “lower root damage than control plants”.

The record behind these values is patent publication US20150376243A1, “Use of AXMI184 for the Control of Rootworm Insects” (ATHENIX CORP., priority 2013, published 2015).
